Assay results: article PMC12229497, “The intracellular bacterium Orientia tsutsugamushi uses the autotransporter ScaC to activate BICD adaptors for dynein-based motility” (Nature Communications, 2025)

B6: ScaC passenger domain (residues 33–223), C-terminal TEV-6His (domain or fragment)
chain: VSNMNLDISNMGEAREGLRKDIAEVSKLLCMLEKSTASSKNLTMRLQQSDTRENEQSNHIRLLITEIESINKENDCLRQKNNQLKIKLHQLKVKLEQALARNTDLQQILPKSQAEMDNLRKQNEQLKIQLQQLQVKLQDLMSLQNKCSNLALINSVKLNYIRDIKYIALANIVIVKALASTFTEKLSKSNR
notes: source: SoluBL21 E. coli, purified (Ni-NTA, MonoQ, Superdex 200)

Assays:
BICD2, full-length mouse [1] = molecular target: T1, BICD2, full-length mouse (mouse, UniProt Q921C5 1-820); test: SEC; reconstitution: BICD2 and ScaC constructs mixed in a 1:2 molar ratio, 15 min on ice, Superose 6 Increase 3.2/300 in GF150 buffer; fractions on SDS-PAGE; details: both partners purified
T1 construct: also called full-length BICD2
T1 sequence (Q921C5 whole entry): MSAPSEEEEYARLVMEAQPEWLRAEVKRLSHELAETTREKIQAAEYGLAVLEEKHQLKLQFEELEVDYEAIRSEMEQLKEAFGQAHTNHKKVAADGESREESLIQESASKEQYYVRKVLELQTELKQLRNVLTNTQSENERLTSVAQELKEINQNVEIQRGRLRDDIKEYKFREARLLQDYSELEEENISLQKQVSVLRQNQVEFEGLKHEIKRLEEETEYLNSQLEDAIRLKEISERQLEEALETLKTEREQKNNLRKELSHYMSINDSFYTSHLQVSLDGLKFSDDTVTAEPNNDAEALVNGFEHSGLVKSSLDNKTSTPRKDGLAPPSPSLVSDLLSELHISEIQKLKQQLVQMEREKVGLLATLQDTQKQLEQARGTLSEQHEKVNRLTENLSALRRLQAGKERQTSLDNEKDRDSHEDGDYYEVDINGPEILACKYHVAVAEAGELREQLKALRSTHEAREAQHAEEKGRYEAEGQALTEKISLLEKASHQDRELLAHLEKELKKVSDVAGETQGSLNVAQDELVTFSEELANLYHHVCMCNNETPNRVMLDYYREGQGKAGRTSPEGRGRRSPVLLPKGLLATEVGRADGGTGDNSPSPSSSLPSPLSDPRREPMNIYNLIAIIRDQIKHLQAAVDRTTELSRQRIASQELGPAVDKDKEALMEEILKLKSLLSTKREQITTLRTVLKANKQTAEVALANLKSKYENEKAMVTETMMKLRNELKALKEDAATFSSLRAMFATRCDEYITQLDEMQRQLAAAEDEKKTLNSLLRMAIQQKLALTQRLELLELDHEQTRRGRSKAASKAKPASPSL

[2] = molecular target: B6; test: as above; details: both partners purified
[3] = molecular target: T2, RAB6^Q72L (GTP-locked RAB6 mutant) (human, UniProt P20340 1-208, Q72L); test: pull-down; details: both partners purified
T2 construct: source: SoluBL21 E. coli, purified (Glutathione Sepharose, GST cleaved, Superose 6, with 10 μM GTP); not shown: GST, N-terminal, cleaved
T2 sequence (P20340 whole entry Q72L): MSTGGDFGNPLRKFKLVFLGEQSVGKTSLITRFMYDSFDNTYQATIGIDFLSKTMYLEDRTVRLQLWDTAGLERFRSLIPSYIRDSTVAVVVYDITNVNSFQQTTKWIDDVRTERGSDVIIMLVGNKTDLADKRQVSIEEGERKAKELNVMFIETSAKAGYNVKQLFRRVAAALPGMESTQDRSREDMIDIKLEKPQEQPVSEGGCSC

[4] = molecular target: T3, GCN4-RANBP2^min (RANBP2 residues 2148–2240 fused to an N-terminal GCN4 dimerization tag) (human, UniProt P49792 2148-2240); test: pull-down; details: both partners purified
T3 construct: not shown: GCN4 dimerization tag, N-terminal, kept
T3 sequence (P49792 2148-2240): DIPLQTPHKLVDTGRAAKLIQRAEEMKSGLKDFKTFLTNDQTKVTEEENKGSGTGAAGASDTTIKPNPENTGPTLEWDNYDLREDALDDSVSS

[5] = molecular target: B6; test: pull-down; details: both partners purified
[6] = molecular target: the molecule itself; test: SEC-MALS; 1 mg/mL, Superose 6 10/300, GF150 buffer, 0.5 ml/min
BICD2, full-length mouse [7] = molecular target: T1, BICD2, full-length mouse; test: as above; details: both partners purified
[8] = molecular target: T4, BICD2-AF488 (BICD2-SNAP labelled with SNAP-Surface Alexa Fluor 488) (mouse, UniProt Q921C5 1-820, Alexa Fluor 488 on the SNAP tag (SNAP-Surface Alexa Fluor 488)); test: single-molecule TIRF dual-colour co-migration on microtubules; details: both partners purified
T4 construct: also called BICD2-488; not shown: SNAP, C-terminal, kept
T4 sequence (Q921C5 whole entry): as the sequence (Q921C5 whole entry) above

B1: ScaC^50–159 (domain or fragment)
chain: LRKDIAEVSKLLCMLEKSTASSKNLTMRLQQSDTRENEQSNHIRLLITEIESINKENDCLRQKNNQLKIKLHQLKVKLEQALARNTDLQQILPKSQAEMDNLRKQNEQLK
notes: source: SoluBL21 E. coli, purified (StrepTactin, Superdex 200)
B1: binds (BICD2, full-length mouse [1]).

B2: Strep-BICD2^711–800 (CC3 domain) (domain or fragment, mouse, UniProt Q921C5 711-800, looked up)
chain: YENEKAMVTETMMKLRNELKALKEDAATFSSLRAMFATRCDEYITQLDEMQRQLAAAEDEKKTLNSLLRMAIQQKLALTQRLELLELDHE
notes: also called CC3 of BICD2; not shown: Strep, N-terminal, kept
B2: binds [2]; binds [3]; binds [4].

B3: Strep-BICD2^711–800 L742A (domain or fragment, mouse, UniProt Q921C5 711-800, looked up)
chain: YENEKAMVTETMMKLRNELKALKEDAATFSSARAMFATRCDEYITQLDEMQRQLAAAEDEKKTLNSLLRMAIQQKLALTQRLELLELDHE
notes: not shown: Strep, N-terminal, kept
B3: binds [5].

B4: Strep-BICD2^711–800 L786A (domain or fragment, mouse, UniProt Q921C5 711-800, looked up)
chain: YENEKAMVTETMMKLRNELKALKEDAATFSSLRAMFATRCDEYITQLDEMQRQLAAAEDEKKTLNSLLRMAIQQKAALTQRLELLELDHE
notes: as for B3
B4: binds [5].

B5: Strep-BICD2^711–800 L742A/L786A (domain or fragment, mouse, UniProt Q921C5 711-800, looked up)
chain: YENEKAMVTETMMKLRNELKALKEDAATFSSARAMFATRCDEYITQLDEMQRQLAAAEDEKKTLNSLLRMAIQQKAALTQRLELLELDHE
notes: also called double L742A/L786A mutant; not shown: Strep, N-terminal, kept
B5: binds [5].

B6 was tested, and the “stoichiometry N” value [6] was 2 and the “stoichiometry N” value (BICD2, full-length mouse [7]) was 1 ScaC:BICD2 (2:2).

B7: ScaC-AF647 (ScaC-SNAP labelled with SNAP-Surface Alexa Fluor 647) (domain or fragment)
chain: VSNMNLDISNMGEAREGLRKDIAEVSKLLCMLEKSTASSKNLTMRLQQSDTRENEQSNHIRLLITEIESINKENDCLRQKNNQLKIKLHQLKVKLEQALARNTDLQQILPKSQAEMDNLRKQNEQLKIQLQQLQVKLQDLMSLQNKCSNLALINSVKLNYIRDIKYIALANIVIVKALASTFTEKLSKSNR
modifications: Alexa Fluor 647 on the SNAP tag (SNAP-Surface Alexa Fluor 647)
notes: source: SoluBL21 E. coli, purified (Ni-NTA, MonoQ, labelling, Superdex 200)
B7: binds [8].
